Substitutions are numbered along the chain they refer to.

What all share (assay type): biochemical
Data set [1] in a line: HTP-analysis of yeast culture supernatants, no challenge (MUGal hydrolysis). The procedure, abridged: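 GLA variants expressed in yeast INVSc1, secreted into SD-Ura broth over 66-84 h at 30° C; clarified supernatants tested without challenge. Supernatant mixed with McIlvaine buffer pH 4.8 and 2 mM MUGal (citrate/KCl, pH 4.6), 37° C for 30-180 min, carbonate-quenched, fluorescence Ex 355/Em 448 nm.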

Data set [2] is described as follows: HTP-analysis of supernatants pretreated with acid (MUGal hydrolysis). As to conditions: for Relative Activity of GLA Variants After Challenge at pH 3.3: activity of the variant/activity of Rd3BB (SEQ ID NO: 13), yeast supernatant; for Relative Activity of GLA Variants After Challenge at pH 3.5: activity of the variant/activity of Rd7BB (SEQ ID NO: 44). The procedure, abridged: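 GLA variants were secreted from INVSc1 yeast grown 66-84 h at 30° C. in SD-Ura with 2% glucose; supernatants were mixed with McIlvaine buffer pH 3.3-4.3 and held at 37° C. for 1-3 h. Residual activity on MUGal at pH 4.8 was then measured by fluorescence.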

Data set [3] can be described thus: HTP-analysis of supernatants pretreated with base (MUGal hydrolysis). The following applies: for Relative Activity of GLA Variants After Challenge at pH 9.7: activity of the variant/activity of Rd3BB (SEQ ID NO: 13), yeast supernatant; for Relative Activity of GLA Variants After Challenge at pH 7.5: activity of the variant/activity of Rd7BB (SEQ ID NO: 44). The procedure, abridged:
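GLA variants secreted from yeast INVSc1; culture supernatants pre-incubated with McIlvaine buffer pH 7.0–8.2 or 200 mM bicarbonate pH 9.1–9.7 at 37° C. for 1–18 h. Residual activity: MUGal (4 mM stock) hydrolysis at pH 4.3–4.8, 37° C., 30–180 min, carbonate quench; fluorescence Ex 355/Em 448 nm.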

Setting [4] is: activity of the variant/activity of Rd3BB (SEQ ID NO: 13), yeast supernatant.
Setting [5] is: activity of the variant/activity of Rd7BB (SEQ ID NO: 44).

B1: 623 (protein)
chain: LDNGLARTPTMGWLHWERFMCNLDCQEEPDSCISEKLFMEMAERMVNEGWKDAGYEYLCIDDCWMAPQRDSEGRLQADPQRFPHGIRQLANYVHSKGLKLGIYADVGNKTCAGFPGSFGYYDIDAQTFADWGVDLLKFDGCYCDSLENLADGYKHMSLALNRTGRPIVYSCEWPLYMWPFQKPNYTEIRQYCNHWRNFADIDDSWASIKSILDWTSRNQERIVDVAGPGGWNDPDMLVIGNFGLSWDQQVTQMALWAIMAAPLFMSNDLRAISPQSKALLQDKDVIAINQDPLGKQGYQLRKGDNFEVWERPLSGDAWAVAIINRQEIGGPRSYTIPVASLGKGVACNPACFITQLLPVKRQLGFYNWTSRLKSHINPTGTVLLQLENTMQTSLKDLL
modifications: Synthetic Polypeptide sequence of Variant No. 623 of mature Human GLA
In the case of B1, in data set [1] (setting [4]), the “Relative Activity of GLA Variants After No Challenge (NC)” value was “+ (+ = 1.5 to 5 relative activity over Rd3BB (SEQ ID NO: 13))”. The “Relative Activity of GLA Variants After Challenge at pH 3.3” value (“Relative Activity … at pH 3.3” below) in data set [2] is on record as “+++ (+++ = >10 relative activity over Rd3BB (SEQ ID NO: 13))”. In addition, the “Relative Activity of GLA Variants After Challenge at pH 9.7” value (“Relative Activity … at pH 9.7” for short) in data set [3] was “++ (++ = >5 to 10 relative activity over Rd3BB (SEQ ID NO: 13))”.

B2: 628 (protein)
chain: B1 chain with Y92H, S276A, M390H, T392M
modifications: Synthetic Polypeptide sequence of Variant No. 628 of mature Human GLA
In the case of B2, the “Relative Activity of GLA Variants After No Challenge (NC)” value in data set [1] (setting [4]) is reported as “+ (+ = 1.5 to 5 relative activity over Rd3BB (SEQ ID NO: 13))”. In addition, the “Relative Activity … at pH 3.3” value in data set [2] is “+ (+ = 1.5 to 5 relative activity over Rd3BB (SEQ ID NO: 13))”. Besides, the “Relative Activity … at pH 9.7” value in data set [3] is on record as “++ (++ = >5 to 10 relative activity over Rd3BB (SEQ ID NO: 13))”.

B3: 627 (protein)
chain: B1 chain with Y92H, M259W, S276A, M390H
modifications: Synthetic Polypeptide sequence of Variant No. 627 of mature Human GLA
In the case of B3, in data set [1] (setting [4]), the “Relative Activity of GLA Variants After No Challenge (NC)” value is “+ (+ = 1.5 to 5 relative activity over Rd3BB (SEQ ID NO: 13))”. The “Relative Activity … at pH 3.3” value in data set [2] is “− (− = <1.5 relative activity to Rd3BB (SEQ ID NO: 13))”. In addition, the “Relative Activity … at pH 9.7” value in data set [3] is given as “++ (++ = >5 to 10 relative activity over Rd3BB (SEQ ID NO: 13))”.

B4: 662 (protein)
chain: B1 chain with N47T, Y92H, V238I, S276A
modifications: Synthetic Polypeptide sequence of Variant No. 662 of mature Human GLA
Take B4: the “Relative Activity of GLA Variants After No Challenge (NC)” value in data set [1] (setting [5]) was “+ (>0.5 to 1.5 relative activity over Rd7BB (SEQ ID NO: 44))”. Besides, the “Relative Activity of GLA Variants After Challenge at pH 3.5” value (from here on “Relative Activity … at pH 3.5”) in data set [2] is “+ (>0.5 to 1.5 relative activity over Rd7BB (SEQ ID NO: 44))”. In data set [3], the “Relative Activity of GLA Variants After Challenge at pH 7.5” value (from here on “Relative Activity … at pH 7.5”) is listed as “+ (>0.5 to 1.5 relative activity over Rd7BB (SEQ ID NO: 44))”.

B5: 631 (protein)
chain: B1 chain with N47T, Y92H, S276A, M390Q, T392M
modifications: Synthetic Polypeptide sequence of Variant No. 631 of mature Human GLA
Take B5: in data set [1] (setting [4]), the “Relative Activity of GLA Variants After No Challenge (NC)” value is given as “+ (+ = 1.5 to 5 relative activity over Rd3BB (SEQ ID NO: 13))”. Besides, the “Relative Activity … at pH 3.3” value in data set [2] is recorded as “+ (+ = 1.5 to 5 relative activity over Rd3BB (SEQ ID NO: 13))”. Also, the “Relative Activity … at pH 9.7” value in data set [3] is “++ (++ = >5 to 10 relative activity over Rd3BB (SEQ ID NO: 13))”.

B6: 632 (protein)
chain: B1 chain with Y92H, S276A
modifications: Synthetic Polypeptide sequence of Variant No. 632 of mature Human GLA
Take B6: the “Relative Activity of GLA Variants After No Challenge (NC)” value in data set [1] (setting [4]) is “+ (+ = 1.5 to 5 relative activity over Rd3BB (SEQ ID NO: 13))”. Besides, the “Relative Activity … at pH 3.3” value in data set [2] is “++ (++ = >5 to 10 relative activity over Rd3BB (SEQ ID NO: 13))”. The “Relative Activity … at pH 9.7” value in data set [3] is recorded as “++ (++ = >5 to 10 relative activity over Rd3BB (SEQ ID NO: 13))”.

B7: 630 (protein)
chain: B1 chain with N47T, Y92H, M259W, S276A, M390H, T392M
modifications: Synthetic Polypeptide sequence of Variant No. 630 of mature Human GLA
As to B7, the “Relative Activity of GLA Variants After No Challenge (NC)” value in data set [1] (setting [4]) was “+ (+ = 1.5 to 5 relative activity over Rd3BB (SEQ ID NO: 13))”. Besides, in data set [2], the “Relative Activity … at pH 3.3” value is on record as “− (− = <1.5 relative activity to Rd3BB (SEQ ID NO: 13))”. Moreover, the “Relative Activity … at pH 9.7” value in data set [3] was “++ (++ = >5 to 10 relative activity over Rd3BB (SEQ ID NO: 13))”.

B8: 629 (protein)
chain: B1 chain with N47T, S276A, M390Q, T392M
modifications: Synthetic Polypeptide sequence of Variant No. 629 of mature Human GLA
Take B8: the “Relative Activity of GLA Variants After No Challenge (NC)” value in data set [1] (setting [4]) is listed as “+ (+ = 1.5 to 5 relative activity over Rd3BB (SEQ ID NO: 13))”. In addition, the “Relative Activity … at pH 3.3” value in data set [2] is recorded as “++ (++ = >5 to 10 relative activity over Rd3BB (SEQ ID NO: 13))”. In addition, in data set [3], the “Relative Activity … at pH 9.7” value is given as “++ (++ = >5 to 10 relative activity over Rd3BB (SEQ ID NO: 13))”.

B9: 609 (protein)
chain: B1 chain with N47S, A271H, S276A, T392M
modifications: Synthetic Polypeptide sequence of Variant No. 609 of mature Human GLA
Take B9: the “Relative Activity of GLA Variants After No Challenge (NC)” value in data set [1] (setting [4]) is on record as “+ (+ = 1.5 to 5 relative activity over Rd3BB (SEQ ID NO: 13))”. In data set [2], the “Relative Activity … at pH 3.3” value is “++ (++ = >5 to 10 relative activity over Rd3BB (SEQ ID NO: 13))”. The “Relative Activity … at pH 9.7” value in data set [3] is reported as “++ (++ = >5 to 10 relative activity over Rd3BB (SEQ ID NO: 13))”.

B10: 626 (protein)
chain: B1 chain with N47S, Y92H, S276A, M390Q, T392M
modifications: Synthetic Polypeptide sequence of Variant No. 626 of mature Human GLA
As to B10, the “Relative Activity of GLA Variants After No Challenge (NC)” value in data set [1] (setting [4]) is reported as “+ (+ = 1.5 to 5 relative activity over Rd3BB (SEQ ID NO: 13))”. The “Relative Activity … at pH 3.3” value in data set [2] is recorded as “++ (++ = >5 to 10 relative activity over Rd3BB (SEQ ID NO: 13))”. Also, in data set [3], the “Relative Activity … at pH 9.7” value is “++ (++ = >5 to 10 relative activity over Rd3BB (SEQ ID NO: 13))”.

B11: 661 (protein)
chain: B1 chain with N47T, Y92H, W195C, S276A
modifications: Synthetic Polypeptide sequence of Variant No. 661 of mature Human GLA
Consider B11, for which the “Relative Activity of GLA Variants After No Challenge (NC)” value in data set [1] (setting [5]) was “− (<0.5 relative activity to Rd7BB (SEQ ID NO: 44))”. The “Relative Activity … at pH 3.5” value in data set [2] was “− (<0.5 relative activity to Rd7BB (SEQ ID NO: 44))”. In addition, the “Relative Activity … at pH 7.5” value in data set [3] is “− (<0.5 relative activity to Rd7BB (SEQ ID NO: 44))”.

B12: 660 (protein)
chain: B1 chain with M39E, N47T, Y92H, A261G, S276A, N305L
modifications: Synthetic Polypeptide sequence of Variant No. 660 of mature Human GLA
Turning to B12, the “Relative Activity of GLA Variants After No Challenge (NC)” value in data set [1] (setting [5]) is reported as “+ (>0.5 to 1.5 relative activity over Rd7BB (SEQ ID NO: 44))”. In addition, the “Relative Activity … at pH 3.5” value in data set [2] is “+ (>0.5 to 1.5 relative activity over Rd7BB (SEQ ID NO: 44))”. Also, the “Relative Activity … at pH 7.5” value in data set [3] was “− (<0.5 relative activity to Rd7BB (SEQ ID NO: 44))”.

B13: 624 (protein)
chain: B1 chain with S276A, M390Q, T392M
modifications: Synthetic Polypeptide sequence of Variant No. 624 of mature Human GLA
Regarding B13, in data set [1] (setting [4]), the “Relative Activity of GLA Variants After No Challenge (NC)” value is given as “+ (+ = 1.5 to 5 relative activity over Rd3BB (SEQ ID NO: 13))”. The “Relative Activity … at pH 3.3” value in data set [2] was “++ (++ = >5 to 10 relative activity over Rd3BB (SEQ ID NO: 13))”. For the same molecule, the “Relative Activity … at pH 9.7” value in data set [3] is “++ (++ = >5 to 10 relative activity over Rd3BB (SEQ ID NO: 13))”.

B14: 625 (protein)
chain: B1 chain with N47T, Y92H, S276A
modifications: Synthetic Polypeptide sequence of Variant No. 625
Take B14: the “Relative Activity of GLA Variants After No Challenge (NC)” value in data set [1] (setting [4]) is “+ (+ = 1.5 to 5 relative activity over Rd3BB (SEQ ID NO: 13))”. The “Relative Activity … at pH 3.3” value in data set [2] is reported as “++ (++ = >5 to 10 relative activity over Rd3BB (SEQ ID NO: 13))”. For the same molecule, in data set [3], the “Relative Activity … at pH 9.7” value is on record as “++ (++ = >5 to 10 relative activity over Rd3BB (SEQ ID NO: 13))”.
